Data as given in patent US20200347127A1 (CRESCENDO BIOLOGICS, published 2020).
Where two headings read alike, the source gives them in different places.

Columns and labels:
recombinant human IL-17A [1] = target: T1, recombinant human IL-17A (human, UniProt Q16552 24-155); assay: BIAcore single-cycle kinetics, ligand Il-17, 1:1 binding fit, 25 C (n=1 per legend)
T1 construct: Bought recombinant protein (Peprotech AF-200-17); also called Peprotech AF-200-17

recombinant human IL-17A [2] = target: T1, recombinant human IL-17A; assay: BIAcore single-cycle kinetics on IL-17A (n=2 per legend)
recombinant human IL-17A [3] = target: T1, recombinant human IL-17A; assay: cell-based or functional assay
recombinant human IL-17A [4] = target: T1, recombinant human IL-17A; assay: BIAcore single-cycle kinetics on IL-17A (n=2 per legend); remark: listed apart in the source
recombinant human IL-17A [5] = target: T1, recombinant human IL-17A; assay: BIAcore single-cycle kinetics, ligand Il-17, 1:1 binding fit, 25 C (n=1 per legend); remark: listed apart in the source
recombinant human IL-17A [6] = target: T1, recombinant human IL-17A; assay: cell-based or functional assay; remark: listed apart in the source
recombinant human IL-17A [7] = target: T1, recombinant human IL-17A; assay: SPR (BIAcore T200), IL-17A coupled to CM5 chip, single-cycle kinetics
Description: (§1) VH binding kinetics were then determined from the (blank subtracted) sensorgram traces using 1:1 binding models and BIAevaluation software.

IL17E = target: T2, IL17E; assay: specificity ELISA on coated antigen, VH concentration not given
T2 construct: also called IL-25
T2 chain: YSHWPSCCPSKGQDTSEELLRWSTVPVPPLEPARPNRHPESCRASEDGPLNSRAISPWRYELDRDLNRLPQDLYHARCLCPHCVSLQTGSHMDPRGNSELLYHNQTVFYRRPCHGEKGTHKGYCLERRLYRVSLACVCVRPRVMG

IL-17F = target: T3, IL-17F (UniProt Q96PD4 31-163, limits assumed); assay: as above
T3 sequence (looked up): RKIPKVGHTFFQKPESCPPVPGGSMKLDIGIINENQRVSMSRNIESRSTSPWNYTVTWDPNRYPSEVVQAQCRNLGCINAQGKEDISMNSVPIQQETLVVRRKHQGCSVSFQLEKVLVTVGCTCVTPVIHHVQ

IL-17C = target: T4, IL-17C (UniProt Q9P0M4 19-197, limits assumed); assay: as above
T4 sequence (looked up): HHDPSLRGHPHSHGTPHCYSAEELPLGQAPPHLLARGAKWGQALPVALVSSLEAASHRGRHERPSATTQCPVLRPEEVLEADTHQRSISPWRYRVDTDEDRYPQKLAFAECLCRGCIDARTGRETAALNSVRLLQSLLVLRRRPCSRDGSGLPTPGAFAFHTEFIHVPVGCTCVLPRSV

recombinant human IL-17A [8] = target: T1, recombinant human IL-17A; assay: competition ELISA, IL-17A binding to coated IL-17RA-Fc (FIG. 9B); FIG. 9B
Description: (§2) Following washing of excess coating antigen, as described above, the wells of the plate were incubated with 3% skimmed milk powder/PBS to block non-specific protein interactions. […] The mixture was then transferred to the assay plate and incubated for 1 hour at room temperature.
(§3) Where appropriate, curve fitting in PRISM was used to determine the EC₅₀ of inhibiting VH.

recombinant human IL-17A [9] = target: T1, recombinant human IL-17A; assay: SPR (BIAcore T200), IL-17A coupled to CM5 chip, single-cycle kinetics; remark: listed apart in the source
Description: as §1

recombinant human IL-17A [10] = target: T1, recombinant human IL-17A; assay: competition ELISA, IL-17A binding to coated IL-17RA-Fc
Description: as §2, §3

recombinant human IL-17A [11] = target: T1, recombinant human IL-17A; assay: cell-based or functional assay; remark: listed apart in the source

T1 sequence (Q16552 24-155): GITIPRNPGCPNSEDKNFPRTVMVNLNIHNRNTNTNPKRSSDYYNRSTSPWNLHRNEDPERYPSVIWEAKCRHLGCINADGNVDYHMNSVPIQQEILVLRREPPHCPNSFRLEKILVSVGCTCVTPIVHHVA

B1: 3.2-6(G4S)-1.2 (VHH)
VH-linker-VH: QVQLVQSGAEVKKPGASVKVSCKASGYNADAYYINWVRQAPGQGLEWMGSIKPNTGATKYAQKFQGRVTITRDTSISTAYMELSRLRSDDTAVYYCASLDRDTWYPHSYAGWFDAWGQGTLVTVSSAAGGGGSGGGGSGGGGSGGGGSGGGGSGGGGSEVQLVESGGGLVQPGGSLRLSCAASGFTFSSYSMYWVRQAPGKGLEWVAEIKQDGSVQYYVSDVKGRFTISRDNAKNSLYLQMNSLRAEDTAVYYCAKGEILPLYFDYWGQGTLVTVSS
notes: also called Biparatopic 3.2-6(G4S)-1.2
Kd (recombinant human IL-17A [1]): 0.0198 nM | koff (recombinant human IL-17A [1]): 3.02e-05 s⁻¹ | kon (recombinant human IL-17A [1]): 1.52e+06 M⁻¹ s⁻¹ | Kd (recombinant human IL-17A [2]): 0.02 nM | EC50 (recombinant human IL-17A [3]): 0.923 nM

B2: 3.2-2(G4S)-1.2 (VHH)
VH-linker-VH: QVQLVQSGAEVKKPGASVKVSCKASGYNADAYYINWVRQAPGQGLEWMGSIKPNTGATKYAQKFQGRVTITRDTSISTAYMELSRLRSDDTAVYYCASLDRDTWYPHSYAGWFDAWGQGTLVTVSSAAGGGGSGGGGSEVQLVESGGGLVQPGGSLRLSCAASGFTFSSYSMYWVRQAPGKGLEWVAEIKQDGSVQYYVSDVKGRFTISRDNAKNSLYLQMNSLRAEDTAVYYCAKGEILPLYFDYWGQGTLVTVSS
notes: also called Biparatopic: 3.2-2(G4S)-1.2
Kd (recombinant human IL-17A [4]): 0.045 nM | EC50 (recombinant human IL-17A [3]): 1.07 nM | Kd (recombinant human IL-17A [5]): 0.0429 nM | koff (recombinant human IL-17A [5]): 4.75e-05 s⁻¹ | kon (recombinant human IL-17A [5]): 1.1e+06 M⁻¹ s⁻¹

B3: VH 1.1.1 (clone 1.1 expressed from phagemid vector: with linker residues and His tag) (VHH)
VHH: EVQLVESGGGLVQPGGSLRLSCAASGFTFSSYSMYWVRQAPGKGLEWVANIKQDGSEKYYVDSVKGRFTISRDNAKNSLFLQMNSLRAEDTAVYYCAKGEILPLHFDYWGQGTLVTVSS
notes: Human single VH domain; also called Family 1 (clone 1.1)
Cell assay IC50 (nM), IL-17A-induced IL6 release from HT1080 (recombinant human IL-17A [6]): 13 nM | Kd (recombinant human IL-17A [7]): 5 nM | koff (recombinant human IL-17A [7]): 0.00149 s⁻¹ | kon (recombinant human IL-17A [7]): 296000 M⁻¹ s⁻¹ | binding result (IL17E): no binding | binding result (IL-17F): no binding | binding result (IL-17C): no binding | IC50 (recombinant human IL-17A [8]): 29 nM | Kd (recombinant human IL-17A [9]): 5 nM | koff (recombinant human IL-17A [9]): 0.00149 s⁻¹ | kon (recombinant human IL-17A [9]): 296000 M⁻¹ s⁻¹ | IC50 (recombinant human IL-17A [10]): 53 nM | Cell assay IC50 (nM), IL-17A-induced IL6 release from HT1080 (recombinant human IL-17A [11]): 13 nM
